Data as given in patent US20230310621A1, “COMPLEXES FOR THE DELIVERY OF PROTEINACEOUS AGENTS” (priority 2020, published 2023).

Key:
[1] = Ultrafiltration of PAEC; particle recovery by light scattering, free SDS by HPLC-ELSD; assay type: physicochemical; conditions: filtrate fraction of ultrafiltration
Procedure: The fraction of SDS under a free form, i.e. not associated to the PAECs, was determined on the following composition: P24/CpG/SDS/DA002: 200/80/200/350 μg/mL. This analysis was done after separation of the PAECs from free SDS, using ultrafiltration. The free SDS concentration in the permeate fraction was then determined by HPLC using an AZorbax 80A Extend-C18 column. 3.0×150 mm, 3.5 μm from Agilent and an Evaporative Light Scattering Detector (ELSD) Alltech® Model 3300.
Particle recovery has been estimated from the mean light scattering of the permeate fraction of ultrafiltration. The particle recovery percentage was measured as the mean and SD of light scattering count rate of 3 measurements; the SDS recovery percentage was measured as mean and SD of 2 HPLC analysis.

[2] = Circular dichroism, % helix in human insulin on storage at 4° C.; assay type: physicochemical
Procedure: From these CD spectra we have calculated the % of helix in human insulin overtime of storage at 4° C. on 12-day period. […] The CD spectra were taken […].
The CD analysis was carried out after storing the PAEC for 1, 6 or 12 days at 4° C.

Molecule | SDS recovery (wt %) ([1]; 2 HPLC analysis) | Particle recovery (Id %) ([1]; mean and SD of 3 measurements) | percentage helix content in human insulin, Day 1 ([2]; stored 1 day at 4° C.) [%] | percentage helix content in human insulin, Day 6 ([2]; stored 6 days at 4° C.) [%] | percentage helix content in human insulin, Day 12 ([2]; stored 12 days at 4° C.) [%]
CCCCCCCCCCCCOS(=O)(=O)[O-].[Na+] [Free SDS, sodium dodecyl sulphate] | 100.0 | 0.78 ± 0.07 | – | – | –
Human Insulin: free human insulin, small globular protein, Mw 5808 Da | – | – | 14.6 | 37.4 | 36.9
